Test results from a protein production outcome set (Wang et al. 2014).

Experiment: label from the status in PepcDB records

Sequence | protein production
MPSSMLSHDPVLTWSIVALATAGVIIRPMRWPEAVWAVAGAVALVALGLLSWQDALAGVRNGIDVYLFLIGMMLIAELAQREGLFDYLAAYAVEHARGSPQRLFLLVYAVGVLVTVLLSNDATAIVLTPAVYAATRAAGAAPLPYLFVCAFIANAASFVLPISNPANLVVFGEHMPHLGGWLQQFTLPSLAAILATYLVLRLALRRSLAGQTIETRVETPHLSRGGKLAAVGIGAIAIVLLTASALNVALGLPTFVCGLVTTAVVLAIARQSPVPVLKGVSWSVVPLVAGLFVMVEALSRTGVIGALGGLLREAVADAPRLGSWAAGIVTAIACNIGNNLPVGLVAGSVAADNHLPRETIAALLIGVDLGPNFSVTGSLATILWLVVLRRNQIEVTAWRFLKLGLVVTPPALIAALAAAVW | failed
MRAVIQRVKKSWVEVDGKVVGSINEGLNVFLGVRKGDTEEDIEKLVNKILNLRIFEDERGKFQYSVLDIKGEILVVSQFTLYANVKKGRRPSFEEAEEPKRAKELYEKFVDKIKESGLKVETGIFGAMMDVFIENWGPVTIIIDSREI | not failed
MNSASTTVPTDLTNERLPSGRLLALGLQHVLVMYAGTVAVPLIVGGALKLPKDQLAFLINADLFAAGLATLIQAFGFWKFGIRMPVMMGVTFASVAPMIAIGNDPNVGLLGIYGAVIASGIFGILIAPMMGRMLGLFPPVVTGTVITLIGVSLMRVGINWAGGGQPTTRAVIDGVAKEVPNLAYGDLSNLAIAGLVLAVILLLSKYGRGLVANCAVLLGIIIGTLVAMALGKVSFEGLNEASYVAVITPLHFGIPKFELTAILSMCIVMLITLVESTGMFLALSDITGRKLSRDDLTAGLRADGLGTVIGGIFNTFPYTSFSQNVGLVTVTGVRSRYVAAAGGLILIAFGLFPKMAHVVASVPQFVLGGAGIVMFGMVAATGIRILGSCDFNRNRHNLFIVAISIGFGMIPTLSPTLFQYLPKWTDPFTHSGIVLGTIVAVALNLFFNGIQSAEEAMRNAAANSHGTE | failed
MKFTKNQFIWLVVLFFSCFLIYTYWETVVSICNKIFVASQPFLFGAGIAFVVNILMSFYEKILIKFIPFGFITKIKRPVSLLLAFATIGLIFTWVVFTVLPDLIDSINTLISQDRSAINNLINWLLKNKSLQKIIQDLGGVTQVRELINSYSAQLLQQIMNGLTNFLTSLTSLPSTLINLFISIVFSCYVLVGKEKLGSQVNRLVDVYLGRYGKTFHYVVAILNNRFHNFFVYQSIEACILGTLCYIGMRIFNFPYAATISILIGFSAMIPVLGAYIGVTIGTILIMTHSVTLALLFVAYVVILQQFEGNLIYPYVVGGSTGLPVVWVILAITIGSALGGILGMLVSVPVAATLYQIVKDNVVTREKAKAVASLENSD | not failed
MRRCFSKITDCHLGFKNSNFLLVGSEVGSGSVTRTITTTTSERLFSSSYAAHQVDQIKDNPVSDMLIDKFGRLHTYLRISLTERCNLRCQYCMPSEGVELTPKPQLLSQSEIVRLAGLFVSAGVNKIRLTGGEPTVRKDIEEICLQLSSLKGLKNLAITTNGITLAKKLPRLKECGLDSLNISLDTLVPAKFEFLTRRKGHDRVMKSIDTAIELGYNPVKVNCVIMRGLNDDEICDFVELTRDKPINVRFIEFMPFDGNVWNVKKLVPYAEVMDKVVKRFPSIKRMQDHPTETAKNFTIDGHCGSVSFITSMTEHFCAGCNRLRLLADGNFKVCLFGPSEVSLRDPLRSGADDEALREIIGAAVKRKKAAHAGMLDIAKTANRPMIHIGG | failed
MAKVSVYIIAYNEEQKIEPALQSVTWADEIVVIDSFSTDRTAEIARKYTDKVIQVPFEGFGKLRNSAIAATSHEWIFSLDTDERCTEEAKNEILAIIDSPDALDAYYVPRRNIFMGRWVKHSGWYPDYRQPQLFRRGAQVFTDEVVHESFTTIGRVGHMKNAIWQIPFRNFEQMISKIDRYSTLGAAKMTAKGVRPGMGKALFHALFAFFRMYILRLGILDGWAGFVIALYTFEGTFYRYAKQVEAARGWVMTRPEELER | failed
MAPSCLKMAHMRLLLTSFGHDHIRDFVRGTVAYIPDATRLFADSPEAAPFMETERNMLREHGLSIRELPISTSTPEEVDRVLGEVDGVYVAGGETFDLMWLLRSTGNDEVLIKHVRAGLPYIGTSAGAVIAGPSIEPISFLDSPDVAPNLSDYSGLGLCEHVVVPHAGGTIPQFPIDVFAETVRTYGAEFPLVLLKDGQALLIDDHGVHLILEHHHHHH | not failed
MSSDHRDQYYWRAKRDQFRSRAAYKLEFLIERYGIIKDGQAVLEIGSSPGGWTQVLVDHGCRVVAVDIQPMDEIPGVIFLKLNILREDAAERIREEMARSLVQRFDVVLSDAMAKTSGIRSSDHAASVMIGNAVMKIAMDTLRRGGVAVVKQFQGDMTGDFIKNWGHYFRDHRITKPPASRKESSEVYIIFYGFSGKETDNSVQG | failed
MAPTLQGQWIKVGQKGGTGPGPRSSHGIAAVGDKLYSFGGELTPNKHIDKDLYVFDFNTQTWSIAQPKGDAPTVSCLGVRMVAVGTKIYIFGGRDENRNFENFRSYDTVTSEWTFLTKLDEVGGPEARTFHSMASDENHVYVFGGVSKGGTMNTPTRFRTIEAYNIADGKWAQLPDPGDNFEKRGGAGFAVVQGKIWVVYGFATSIVPGGKDDYESNAVQFYDPASKKWTEVETTGAKPSARSVFAHAVVGKYIIIFAGEVWPDLNGHYGPGTLSNEGYALDTETLVWEKLGEEGAPAIPRGWTAYTAATVDGKNGLLMHGGKLPTNERTDDLYFYAVNSA | failed
MNINIEDLIFSLDIGTRTVIGTVGSIKDKKFSVIAEKHTEHEERAMVDGQIHDINLVARAVNKVKSQIEEELGFELKDVAIAAAGRFLRTTAVRSELNIDEDKEIDKDVIRGLELTAVKKAQDEVNKETEGKLYCVGYSVKNYFLNGYAISNLLSHKGNSIAVDVIATFLPRSIVESLYAVMNKVNLNVKSLTLEPIAAMEAAVPKNLRLLNIALLDVGAGTSDIAISSKDTISAYGMVPFAGDEITEVIAQNYLVDFNTAENIKRSCNVDTEIKYTDVLGIENTIKSEEVIKLIQPTVQKLAEEVANKIIELNGEKSPNAVFIVGGGAHTPMLKDLLAENLKIQPQRLAIKGRESVTDCICTDNSLGSTGVTVLGIALVAIRRFGNDFIDVILNDNIISLFNARVHTVKDVVVQAGVNPKLLIGKNGKNVRFILNGVKRVAFGTVAKNAEIRINGLIANIDSEVKENDKIEIKYAENGIDASPIIKDYVKNLYSLGFFIDDEVVNLEPIFIINGNKVTIDTEISEGDEVETVYPSKLIHYIRYYDSDLNKEYYINNIKLDENYDIKEGDRIYTKPKEEEQEVEIIPLAEEDKEEQEVVSHPKEIEKEDDDVNTIVVVVNGNPIKMSGKEKYKFVDIFDYFKFDLTQVKGNLVLTLNGEKVSFFDELHDKDIIEVKWE | failed
MSTHVTFDYSKALSFIGEHEITYLRDAVKVTHHAIHEKTGAGNDFLGWVDLPLQYDKEEFARIQKCAEKIKNDSDILLVVGIGGSYLGARAAIEMLNHSFYNTLSKEQRKTPQVLFVGQNISSTYMKDLMDVLEGKDFSINVISKSGTTTEPALAFRIFRKLLEEKYGKEEARKRIYATTDKARGALKTLADNEGYETFVIPDDVGGRFSVLTPVGLLPIAVSGLNIEEMMKGAAAGRDDFGTSELEENPAYQYAVVRNALYNKGKTIEMLINYEPALQYFAEWWKQLFGESEGKDQKGIFPSSANFSTDLHSLGQYVQEGRRDLFETVLKVGKSTHELTIESEENDLDGLNYLAGETVDFVNTKAYEGTLLAHSDGGVPNLIVNIPELNEYTFGYLVYFFEKACAMSGYLLGVNPFDQPGVEAYKKNMFALLGKPGFEELKAELEERLK | not failed
MSDKLFSIVTISFNQAQFLREAVESVLAQKGGDIEYIVVDPGSTDGSREILAEYRSAIDHLILEADHGPGDGLNKGFARANGRYGYFLNSDDFLLPGAIDIMRTLWQRHKNTDVLLCGAWMVDENRRPQRELRPSPVTLEKLLDGEAKIVQQGMSFRMDLFRKVGGFNVGNRTCWDYELLCDFLAAGAAVTQSEARLAAFRIHSASISGGIGGELATKRYLADLDSVYERLTGQKKKPEQRRRAVRLSKRLGSPSHVLLRMRELLAPWTLELRWQADHERKSRRLEHHHHHH | failed
SIAYIEPYFLENDAEAASAATAAGKSTDGVSESLNIQGEILCGGAAADIAGRDFGGMNCVKPLAVVRPVGPEDIAGAVKAALRSDKLTVAARGNGHSINGQAMAEGGLVVDMSTTAENHFEVGYLSGGDATAFVDVSGGALWEDVLKRCVSEYGLAPRSWTDYLGLTVGGTLSNAGVSGQAFRYGPQTSNVTELDVVTGNGDVVTCSEIENSELFFSVLGGLGQFGIITRARVLLQPAPDMVRWIRVVYTEFDEFTQDAEWLVSQKNESSFDYVEGFVFVNGADPVNGWPTVPLHPDHEFDPTRLPQSCGSVLYCLELGLHYRDSDSNSTIDKRVERLIGRLRFNEGLRFEVDLPYVDFLLRVKRSEEIAKENGTWETPHPWLNLFVSKRDIGDFNRTVFKELVKNGVNGPMLVYPLLRSRWDDRTSVVIPEEGEIFYIVALLRFVPPCAKVSSVEKMVAQNQEIVHWCVKNGIDYKLYLPHYKSQEEWIRHFGNRWSRFVDRKAMFDPMAILSPGQKIFNRSL | not failed
MADDDHIEAVLARLSRPQKLALVRGATDPEGTATGYLSGVEEAGIPPFRLVDGPLGIRAEGQRATAFPASIATAATFDPDLARQQGAAMGREAAALGQDALLAPGVNIIRVPHCGRNFEYLSEDPVHAGAVGAGLIDGIQSADVVATVKHFVANNQETHRTTVSTEVDERTLRELYLPPFRSAVDAGVGSVMTAYNRVNGTHMSDHGRLVGDVLKSEWGFNGYVVSDWYGLESTVGAANAGMDVEMPGVAAPGAAEAANSDTADDAEEFEWPDGIPDATRAGLFGDPLVEAIDSGEVPAERLDDMVRRVLGQMDRFGRLDGSRTAAEDGASDDQAGELDSQRHRDIAADVAARGTVLLDNDGVLPLADGADVAVIGPNIDEPKLGGGGSSETTPVHSVTPVAGIESRAEGAVTTAFGVPQIESVSLFDLLPFVGEDDDTDGTAADIAQQDPSLDDAVDAAAAADVAVVFVRDATTEARDRDSLALPGQQDDLVSAVAATNENTVVVVRSGGPVELPWREDVAAVLEQWYPGQADGDAAAAVLYGDRDPSGRLPVTFAPEGEYPTAGAERRYPGVDDEVHYDEDVFIGYRHFDDEDADPTYPFGHGHSYATFEYGDAEITGEWTVAVPVKNAADRPGREVIQAYVRPPSVDGVDRPRRELAGFEAVQLDADEQKTVALTLDDLAFSRYDPNSGWTVDTGTYTVEIGRSSRDIRTTVPVDR | failed
MDMDEKDVVETEEESFAELFEKSNSETQRLRPGSKVEGKILKIGAEWVFIDIGKKGEGVMERKELQDAEGNLTVAEGDTITAWFTGSVRNEMRFTTKLGAGAAANAQLEEAHRSGIPVEGFVVKEIKGGFEVRLSGTTRAFCPFSQISLRRAENPAEFVGKHLLFKVTEYSERGRNIVLSHRQILEEEQRVKREALKEVLLEGMTVTGTVTRLADFGAFVDLGGVDGLIPVSEVGWTRVKHVRDVLSVGEQVSVVIKKIDWEAGKISLSLKDTLADPWTTVAEQFPEGSYHTGTVARLAAFGAFVTLAPGIDGLIHISKLGKGKRINHPSDVLKEGETVEVKVDGVDREARRLSLALAEVSRAAEEEEKSVASFRQQATSSSKESMGSFGDLLKAKIEEKRLEHHHHHH | failed
MASEHHEALNLYAVRVARGEGVKQDFARAASLFRRADRCGFNCEPVYDDMVNDFRDKAFGMELVSSKRAFLKALRPETAEARCTVGEAFIGQGDADSLRTGRELLTSAATLGSGKAMYLLGVLCRDGKGVAANAERAFMWFSLAASCGFAKAESERVNAEGKLDDAGRTRAMQLAARWRRQYLAPVCLEHHHHHH | failed
MSSSSGNQNSKEHKVAVTHDLGKTNVPEHPKRVVVLELGFIDTLLDLGITPVGVADDNKAKQLINKDVLKKIDGYTSVGTRSQPSMEKIASLKPDLIIADTTRHKKVYDQLKKIAPTIALNNLNADYQDTIDASLTIAKAVGKEKEMEKKLTAHEEKLSETKQKISANSQSVLLIGNTNDTIMARDENFFTSRLLTQVGYRYAISTSGNSDSSNGGDSVNMKMTLEQLLKTDPDVIILMTGKTDDLDADGKRPIEKNVLWKKLKAVKNGHVYHVDRAVWSLRRSVDGANAILDELQKEMPAAKKLEHHHHHH | failed
